Data as given in the supplement of paper PMC10567573.

B1: INTS3 (parent)
chain: EEITEESLEESVGKPLYLIFRNLC

Variants of: B1
Assay: protein stability index of a GFP-peptide fusion (GPS, HEK-293T) (PSI 1-6); higher = more stable
Details: c terminus: a fixed tail appended
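Note: lentivirally expressed fusions sorted by FACS into six bins by GFP to DsRed ratio, PSI derived from sequencing read proportions per bin multiplied by bin number.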

Protein stability index of substitutions, site by site:
L16: C 2.68 | N 3.62 | R 3.38 | D 4.26 | G 3.38 | Y 2.78 | H 3.09 | S 3.29 | V 2.93 | I 2.56 | T 3.23 | E 3.26 | M 2.92 | K 3.39 | F 3.35 | P 3.52 | Q 3.69 | W 2.41 | A 2.99
F20: Q 3.97 | P 4.07 | E 3.53 | L 2.37 | A 2.82 | D 4.48 | I 2.88 | K 4.46 | H 3.46 | C 3.32 | G 4.07 | M 3.1 | N 4.33 | R 4.23
S11: Y 2.58
I19: Y 2.75 | P 4.17 | A 3.73 | E 3.9 | T 3.41 | L 2.86 | K 3.66 | G 3.67 | M 3.06 | H 3.85 | V 3.16 | S 3.33 | W 2.91 | N 3.92 | D 3.89 | C 3.62 | F 2.3 | Q 4 | R 3.7
G13: M 2.5 | I 1.81 | S 2.36 | N 2.64 | L 2.23 | T 2.46 | Q 3.11 | D 2.88 | P 3.31 | H 2.23 | V 1.98 | W 1.79 | E 3.12 | F 2.28 | K 2.44 | A 2.88 | C 2.37 | R 2.7 | Y 2.14
P15: W 2.06 | L 1.85 | K 1.93 | M 2 | F 1.97 | I 2.17 | A 1.25 | Y 1.74 | C 2.05 | H 2.24 | S 2.02 | E 2.14 | R 2.12 | D 3.32 | Q 1.52 | G 2 | N 2.29 | V 1.77 | T 2.06
L18: N 3.38 | Q 3.21 | C 2.7 | P 3.69 | E 3.12 | R 2.82 | I 2.72 | D 3.35 | M 3.38 | K 3.1 | T 3.37 | S 3.37 | A 2.92 | G 3.71 | V 2.7 | W 2.16 | Y 2.93 | F 2.3 | H 3.4
K14: N 3.52 | V 2.6 | L 3.3 | D 3.48 | I 2.78 | M 2.48 | Y 2.47 | E 3.54 | Q 3.19 | S 2.94 | W 2.39 | A 2.96 | T 3.38 | C 3.5 | R 3.31 | F 2.25 | P 3.67 | G 2.96 | H 3.2
V12: W 2.47 | Y 2.36 | A 3.26 | H 3.28 | L 2.5 | I 2.51 | F 2.56 | K 3.54 | T 3.13 | N 2.95 | E 3.36 | M 2.26 | G 3.12 | Q 3.34 | D 3.63 | C 2.55 | R 2.86 | S 3.54 | P 2.94
Y17: S 2.85 | M 2.85 | K 4.07 | H 3.69 | P 4.11 | F 2.73 | G 3.59 | Q 2.92 | D 4.25 | C 3.12 | R 2.61 | T 3.22 | N 3.46 | A 3.32 | V 2.68 | W 2.84 | I 2.62 | E 3.33 | L 2.28
